Laboratory results from US8053627B2, “Methods for treating demyelination disorders” (University of Chicago, priority 2005, dated 2011).

Columns and labels:
[1] = target: PP1-GADD34 phosphatase (Homo sapiens, UniProt O75807); details: Boyce, et al. (2005); cited from earlier work
[2] = test system: cells; details: Boyce, et al. (2005); cited from earlier work
[3] = test system: Hippocampal organotypic cultures; experiment: Hippocampal organotypic cultures (HOC), in vitro model of myelination, MBP Western blot; format: cell-based; details: 7 days; for reduction of MBP expression elicited by IFN-γ exposure: SAL at various concentrations combined with 100 U/ml IFN-γ
Description: HOCs, were prepared and maintained as described previously (Kunkler and Kraig (1997) J Cereb Blood Flow Metab. 17:2643), and were maintained in vitro for 7 days before use. SAL at various concentrations was combined with 100 U/ml IFN-γ and added to the HOC cultures for 7 days. […] After 7 days of 100 U/ml IFN-γ exposure, the levels of MBP decreased approximately 80% in the HOCs (FIG. 29).

[4] = test system: oligodendrocytes and myelin; experiment: IFN-γ-overexpressing mice crossed to PLP/SOCS1 mice, clinical and histological evaluation at postnatal day 21; format: in vivo; details: for Incidence of tremor: ten mice per group; for oligodendrocyte density: corpus callosum, postnatal day 21
Description: IFN-γ-overexpressing mice were crossed to the PLP/SOCS1 mice in double-transgenic, (MBP/IFN-γ×PLP/SOCS1) and triple-transgenic (GFAP/tTA×TRE/IFN-γ×PLP/SOCS1) mating systems. MBP/IFN-γ×PLP/SOCS1 (172×PLP/SOCS1) mating was performed according to a standard mating protocol. The GFAP/tTA×TRE/IFN-γ×PLP/SOCS1 matings were performed in a 2-step mating process: GFAP/tTA mice were initially crossed to PLP/SOCS1 mice, and double-positive (184×PLP/SOCS1) offspring were then crossed to the TRE/IFN-γ lines 110 and 67, separately. This second mating step was performed according to the previously described “tet-off” protocol. Doxycycline 0.05 mg/ml (Sigma-Aldich) was added to the water of impregnated female mice until embryonic day 14, after which the animals were switched back to normal water, thereby allowing initiation of IFN-γ transcription, which peaks during the postnatal period (Lin et al., 2005).
The litters of the mating systems (F1 generation) were examined daily and sacrificed at postnatal day 21. Clinical evaluation included behavioral observation and challenged ladder walking to elicit tremor. Histological examination included quantitation of the number and density of oligodendrocytes and examination of the myelination patterns. Brain tissue was simultaneously obtained from each animal at the time of sacrifice to verify and measure the expression of IFN-γ and Flag-SOCS1 (see below). The clinical and histological findings were subsequently stratified according to genotype. All animal procedures were conducted in compliance with the National Institutes of Health Guide for Care and Use of Laboratory Animals and were approved by the Institutional Animal Care and Use Committee at The University of Chicago.
Oligodendrocyte cell density was assessed digitally using Axiovision software, at postnatal day 21, as previously described (Lin et al., 2005). The brains were sectioned sagittally through the corpus callosum dividing the brain in two symmetrical halves. Ten frozen sections from each half were prepared at 7 μm thickness, and numbered in the sequence of their preparation. The brains of three animals per study group were prepared in this fashion. Following the CC1 immunostaining the corresponding area of corpus callosum of each section was digitally selected and the corresponding total area obtained. CC1 cell counting was performed manually within the selected areas of each section, and the number of CC1 positive cells per square area (mm^2) calculated. The results were presented as mean±SD of CC1 (+) cells/mm^2 with n=3 animals per study group.
Myelination patterns of the examined animals were assessed at postnatal day 21 by calculating the percent unmyelinated axons and ratio of the axon/fiber diameters (G ratio) with Image J software (National Institutes of Health, Bethesda, Md.) as previously described (Lin at al., 2005). The brains were sectioned sagittally through the corpus callosum dividing the brain in two symmetrical halves. Approximately 2 mm^3 samples from the genu and the splenum of both halves of corpus callosum were obtained using a Wild M3C stereotype microscope. The orientation of the specimen in the resin blocks yielding axonal cross-sections (well seen myelin rings) was chosen, and established by toluedine blue staining of a few sample sections. The resin blocks with the chosen orientation were processed for electron microscope examination. Randomly selected areas were examined and ten representative pictures from both genu and splenum corpus callosum were obtained at 12000× magnification. The number of unmyelinated axons was assessed by manual counting of axons that lacked myelin and were encircled solely by their own plasma membrane. All unmyelinated axons present in the representative images were counted, and their percentage calculated by examining a total of five hundred axons per tissue sample. […]

PP1-GADD34 phosphatase, sequence (O75807 whole entry): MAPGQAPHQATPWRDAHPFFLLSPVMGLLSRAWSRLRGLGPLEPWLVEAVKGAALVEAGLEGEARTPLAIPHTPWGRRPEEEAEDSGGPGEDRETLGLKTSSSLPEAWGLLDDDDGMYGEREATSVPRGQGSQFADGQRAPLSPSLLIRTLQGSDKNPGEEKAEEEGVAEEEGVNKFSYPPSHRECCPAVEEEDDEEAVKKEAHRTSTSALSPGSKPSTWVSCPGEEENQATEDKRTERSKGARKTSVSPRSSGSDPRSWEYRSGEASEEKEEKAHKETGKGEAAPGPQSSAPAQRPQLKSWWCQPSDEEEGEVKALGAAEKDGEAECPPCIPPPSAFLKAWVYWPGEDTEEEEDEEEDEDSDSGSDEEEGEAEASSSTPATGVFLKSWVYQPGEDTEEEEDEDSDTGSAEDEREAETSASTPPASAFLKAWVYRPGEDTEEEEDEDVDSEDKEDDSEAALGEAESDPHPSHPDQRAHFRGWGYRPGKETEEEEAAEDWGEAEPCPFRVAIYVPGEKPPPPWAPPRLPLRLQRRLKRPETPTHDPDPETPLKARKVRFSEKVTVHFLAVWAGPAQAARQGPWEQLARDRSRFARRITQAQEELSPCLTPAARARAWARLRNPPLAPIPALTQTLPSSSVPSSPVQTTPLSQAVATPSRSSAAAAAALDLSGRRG

O=C(/C=C/c1ccccc1)NC(NC(=S)Nc1cccc2cccnc12)C(Cl)(Cl)Cl (centres unmarked) [SAL, salubrinal]
PP1-GADD34 phosphatase activity [1]: specifically inhibits
protection of cells from ER stress and viral infection [2]: protects cells from ER stress and viral infection
reduction of MBP expression elicited by IFN-γ exposure [3]: markedly attenuated
reduction of MBP expression elicited by IFN-γ exposure ([3]; listed as Sal): attenuating effect
MBP expression ([3]; SAL treatment alone): did not affect

B1: SOCS1: suppressor of cytokine signaling 1, Flag-tagged, expressed in oligodendrocytes from the PLP/SOCS1 transgene (protein, UniProt O35716 1-212, looked up)
Suppressor of cytokine …: MVARNQVAADNAISPAAEPRRRSEPSSSSSSSSPAAPVRPRPCPAVPAPAPGDTHFRTFRSHSDYRRITRTSALLDACGFYWGPLSVHGAHERLRAEPVGTFLVRDSRQRNCFFALSVKMASGPTSIRVHFQAGRFHLDGSRETFDCLFELLEHYVAAPRRMLGAPLRQRRVRPLQELCRQRIVAAVGRENLARIPLNPVLRDYLSSFPFQI
modifications: FLAG tag
notes: suppressor of cytokine signaling 1, Flag-tagged, expressed in oligodendrocytes from the PLP/SOCS1 transgene
Incidence of tremor ([4]; 172 × PLP/SOCS1 littermates): 0%
oligodendrocyte density ([4]; 184/67 system): 142±5 CC1 (+) cells/mm^2
Incidence of tremor ([4]; 184/67 × PLP/SOCS1 littermates): 0%
oligodendrocyte density ([4]; 184/110 system): 141±6 CC1 (+) cells/mm^2
Incidence of tremor ([4]; 184/110 × PLP/SOCS1 littermates): 0%
MHC class I molecule expression (immunostaining) ([4]; MBP/IFN-γ and MBP/IFN-γ×PLP/SOCS1 brains): did not express detectable levels
